Test results from patent JP2020117470A (dated 2020).

Target: T1, Streptococcus pyogenesのStreptolysin O(SLO) (Streptococcus pyogenes, UniProt P0C0I3 34-571)
T1 sequence: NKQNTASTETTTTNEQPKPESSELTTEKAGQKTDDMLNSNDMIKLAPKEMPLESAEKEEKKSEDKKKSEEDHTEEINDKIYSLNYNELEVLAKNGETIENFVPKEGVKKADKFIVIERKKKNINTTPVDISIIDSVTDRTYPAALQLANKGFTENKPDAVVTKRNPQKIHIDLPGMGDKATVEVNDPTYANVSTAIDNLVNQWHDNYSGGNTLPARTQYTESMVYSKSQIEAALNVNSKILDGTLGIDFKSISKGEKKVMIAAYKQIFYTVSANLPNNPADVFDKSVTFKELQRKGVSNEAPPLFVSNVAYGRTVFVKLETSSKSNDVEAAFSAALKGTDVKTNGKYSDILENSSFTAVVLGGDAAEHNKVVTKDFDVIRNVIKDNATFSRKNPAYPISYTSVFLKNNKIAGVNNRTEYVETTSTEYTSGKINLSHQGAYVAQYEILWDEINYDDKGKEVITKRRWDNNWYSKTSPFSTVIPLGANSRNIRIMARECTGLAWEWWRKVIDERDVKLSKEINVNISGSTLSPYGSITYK
Test: ELISA, plate coated with 1 μg/mL SLO, anti-mouse IgG-HRP detection

B1: 抗体HS3 (antibody, V domains shown)
VH: EVQLQESGPDLVKPSQSLSLICTVTGYSITSGYNWHWIRQFPGNKLEWMAYIDYTGSTHYNPSLKSRISITRDTSKNHFFLQLNSVTTEDTATYYCARDYGNYEWSFDVWGAGTTVTVSS
VL: DIQMNQSPSSLSASLGDTITITCHASQNINVWLSWYQQKPGNIPKLLIYKASNLHTGVPSRFSGSGSGTGFTLTISSLQPEDIATYYCQQGQSYPLTFGAGTKL
- binding result: no binding

B2: 抗体HS2 (antibody, V domains shown)
V domain 1: VQLQESGPELVKPGASVKISCKASGYAFSSSWMNWVRQRPGQGLEWIGRIYPGDGDTNYNGKFKGKATLTADKSSNAAYMHLSSLTSVDSAVYFCARRNYGSGFLYYFDYWGQGTTLTV
V domain 2: QIVLSQFPAILSASPGEKVTMTCRASSSVSYMHWYQQKPGSSPKLWIYATSDLASGVPARFSGSGSGTSYSLTISRVEAEDAATYYCQQWSSNPPTFGGGTKL
- binding result: no binding
